The results in this text go back to patent US20210238268A1 (ATARGA, published 2021).

B1: ATG-008 (antibody, IgG2)
heavy: QVQLVQSGAEVKKPGASVKVSCKASGHIFTDFYMQWVRQAPGQGLEWMGEILPGTGHTEYAQKFQGRVTMTRDTSISTVYMEVRRLRSDDTAVYYCARYFFGSTPNWYFDVWGQGTLVTVSSASTKGPSVFPLAPCSRSTSESTAALGCLVKDYFPEPVTVSWNSGALTSGVHTFPAVLQSSGLYSLSSVVTVPSSNFGTQTYTCNVDHKPSNTKVDKTVERKCCVECPPCPAPPVAGPSVFLFPPKPKDTLMISRTPEVTCVVVDVSQEDPEVQFNWYVDGVEVHNAKTKPREEQFNSTYRVVSVLTVLHQDWLNGKEYKCKVSNKGLPSSIEKTISKAKGQPREPQVYTLPPSQEEMTKNQVSLTCLVKGFYPSDIAVEWESNGQPENNYKTTPPVLDSDGSFFLYSRLTVDKSRWQEGNVFSCSVLHEALHSHYTQKSLSLSLGK
light: EIVMTQSPSSLSASVGDRVTITCGATENIYGALNWYQHEPGKAPKLLIYGASNRYTGVTSRFSGSGSGTDFTLTISTLQPEDFATYYCQQVLNTPVSFGGGTKVDIKRTVAAPSVFIFPPSDEQLKSGTASVVCLLNNFYPREAKVQWKVDNALQSGNSQESVTEQDSKDSTYSLSSTLTLSKADYEKHKVYACEVTHQGLSSPVTKSFNRGEC
notes: Expressed in Expi CHO cells; also called anti-C5 monoclonal antibody ATG-008
B2: ATG-012 (antibody, IgG2)
heavy: QVQLVQSGAEVKKPGASVKVSCKASGHIFTDFYMQWVRQAPGQGLEWMGEILPGTGHTEYAQKFQGRVTMTRDTSISTVYMEVRRLRSDDTAVYYCARYFFGSTPNWYFDVWGQGTLVTVSSASTKGPSVFPLAPCSRSTSESTAALGCLVKDYFPEPVTVSWNSGALTSGVHTFPAVLQSSGLYSLSSVVTVPSSNFGTQTYTCNVDHKPSNTKVDKTVERKCCVECPPCPAPPVAGPSVFLFPPKPKDTLYITREPEVTCVVVDVSQEDPEVQFNWYVDGVEVHNAKTKPREEQFNSTYRVVSVLTVLHQDWLNGKEYKCKVSNKGLPSSIEKTISKAKGQPREPQVYTLPPSQEEMTKNQVSLTCLVKGFYPSDIAVEWESNGQPENNYKTTPPVLDSDGSFFLYSRLTVDKSRWQEGNVFSCSVMHEALHNHYTQKSLSLSLGK
light: EIVMTQSPSSLSASVGDRVTITCGATENIYGALNWYQHEPGKAPKLLIYGASNRYTGVTSRFSGSGSGTDFTLTISTLQPEDFATYYCQQVLNTPVSFGGGTKVDIKRTVAAPSVFIFPPSDEQLKSGTASVVCLLNNFYPREAKVQWKVDNALQSGNSQESVTEQDSKDSTYSLSSTLTLSKADYEKHKVYACEVTHQGLSSPVTKSFNRGEC
notes: Same variable regions as ATG-008; Expressed in Expi CHO cells; also called anti-C5 monoclonal antibody ATG-012
B3: ATG-001 (antibody, V domains shown)
VH: QVQLVQSGAEVKKPGASVKVSCKASGYIFTNYWMQWVRQAPGQGLEWMGEILPGTGSTEYAQKFQGRVTMTRDTSISTVYMEVRRLRSDDTAVYYCARYFFGSTPNWYFDVWGQGTLVTVSS
VL: EIVMTQSPSSLSASVGDRVTITCGATENIYGALNWYQHEPGKAPKLLIYGASNLADGVTSRFSGSGSGTDFTLTISTLQPEDFATYYCQNVLNTPLSFGGGTKVDIKR
notes: Expressed in Expi CHO cells; also called anti-C5 monoclonal antibody ATG-001
B4: ATG-006 (antibody, V domains shown)
VH: QVQLVQSGAEVKKPGASVKVSCKASGYIFTDFYMQWVRQAPGQGLEWMGEILPGTGSTEYAQKFQGRVTMTRDTSISTVYMEVRRLRSDDTAVYYCARYFFGSTPNWYFDVWGQGTLVTVSS
VL: EIVMTQSPSSLSASVGDRVTITCGATENIYGALNWYQHEPGKAPKLLIYGASNRYTGVTSRFSGSGSGTDFTLTISTLQPEDFATYYCQQVLNTPVSFGGGTKVDIKR
notes: Expressed in Expi CHO cells; also called anti-C5 monoclonal antibody ATG-006
B5: ATG-005 (antibody, V domains shown)
VH: QVQLVQSGAEVKKPGASVKVSCKASGYIFTNYWMQWVRQAPGQGLEWMGEILPGTGSTEYAQKFQGRVTMTRDTSISTVYMEVRRLRSDDTAVYYCARYFFGSTPNWYFDVWGQGTLVTVSS
VL: EIVMTQSPSSLSASVGDRVTITCGATENIYGALNWYQHEPGKAPKLLIYGASNRYTGVTSRFSGSGSGTDFTLTISTLQPEDFATYYCQQVLNTPVSFGGGTKVDIKR
notes: Expressed in Expi CHO cells; also called anti-C5 monoclonal antibody ATG-005

The assay deals with T1, human Complement component 5 (C5) (human, UniProt P01031 19-1676, limits assumed).
T1 construct: also called human C5
T1 sequence (P01031 19-1676 limits assumed): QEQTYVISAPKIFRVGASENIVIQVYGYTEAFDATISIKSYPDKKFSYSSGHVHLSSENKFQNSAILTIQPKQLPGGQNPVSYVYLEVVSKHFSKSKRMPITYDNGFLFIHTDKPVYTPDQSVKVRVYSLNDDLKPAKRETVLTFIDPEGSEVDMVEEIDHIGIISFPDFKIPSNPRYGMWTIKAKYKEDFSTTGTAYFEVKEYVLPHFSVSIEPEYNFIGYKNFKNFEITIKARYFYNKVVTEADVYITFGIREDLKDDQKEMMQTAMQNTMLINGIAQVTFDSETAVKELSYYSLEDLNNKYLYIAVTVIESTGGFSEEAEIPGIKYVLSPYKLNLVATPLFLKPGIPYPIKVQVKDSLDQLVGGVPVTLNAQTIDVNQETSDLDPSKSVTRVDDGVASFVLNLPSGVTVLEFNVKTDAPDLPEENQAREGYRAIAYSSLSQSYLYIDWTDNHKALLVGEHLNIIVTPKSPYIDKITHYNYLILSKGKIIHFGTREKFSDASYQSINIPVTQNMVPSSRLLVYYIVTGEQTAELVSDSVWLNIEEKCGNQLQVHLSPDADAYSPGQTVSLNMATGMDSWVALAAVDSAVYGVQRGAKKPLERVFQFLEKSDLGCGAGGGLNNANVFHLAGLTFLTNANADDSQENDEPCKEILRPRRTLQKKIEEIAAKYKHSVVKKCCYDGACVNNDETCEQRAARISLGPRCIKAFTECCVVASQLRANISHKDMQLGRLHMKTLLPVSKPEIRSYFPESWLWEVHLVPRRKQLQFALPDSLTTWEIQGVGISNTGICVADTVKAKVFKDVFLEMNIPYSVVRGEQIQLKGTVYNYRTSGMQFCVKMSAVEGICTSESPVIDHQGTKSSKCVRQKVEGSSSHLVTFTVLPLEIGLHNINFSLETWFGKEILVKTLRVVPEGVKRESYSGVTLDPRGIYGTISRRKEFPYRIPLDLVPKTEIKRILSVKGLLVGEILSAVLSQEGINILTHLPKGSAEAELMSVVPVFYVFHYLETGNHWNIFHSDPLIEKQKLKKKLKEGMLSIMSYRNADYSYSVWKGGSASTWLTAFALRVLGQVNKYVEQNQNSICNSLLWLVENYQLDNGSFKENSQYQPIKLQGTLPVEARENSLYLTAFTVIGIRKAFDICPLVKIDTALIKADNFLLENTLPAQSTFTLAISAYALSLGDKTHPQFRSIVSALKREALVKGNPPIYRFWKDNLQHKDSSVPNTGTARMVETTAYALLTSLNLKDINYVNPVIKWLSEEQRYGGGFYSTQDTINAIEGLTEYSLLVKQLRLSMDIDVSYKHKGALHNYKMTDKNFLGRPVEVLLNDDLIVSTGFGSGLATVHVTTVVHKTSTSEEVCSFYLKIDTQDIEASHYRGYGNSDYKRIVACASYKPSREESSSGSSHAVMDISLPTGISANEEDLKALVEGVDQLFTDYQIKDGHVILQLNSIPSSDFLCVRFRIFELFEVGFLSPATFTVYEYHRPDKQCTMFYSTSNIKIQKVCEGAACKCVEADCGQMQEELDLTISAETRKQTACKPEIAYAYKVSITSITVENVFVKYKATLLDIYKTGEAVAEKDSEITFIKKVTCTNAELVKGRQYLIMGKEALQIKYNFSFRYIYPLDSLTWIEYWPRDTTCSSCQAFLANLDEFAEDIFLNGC
The assay is described as follows: ELISA, binding to human C5 at pH 7.4 (C5 ELISA, absorbance at 450 nm). The procedure: The exemplary antibodies were tested for binding to human C5 at pH 7.4 using ELISA.
For orientation: An ELISA detects its analyte on a solid surface through an enzyme-linked reagent.
In the case of B1, a half-maximal response (EC50) required 0.09 µg/mL.
As to B2, the midpoint of the response, the EC50, lay at 0.52 µg/mL. Compared with the last molecule, the EC50 is about 5.8-fold higher.
As to B3, the response was half-maximal at 0.099 µg/mL (EC50).
On to B4, for which the EC50 (in general, the concentration needed to bring the measured effect to its halfway point) stood at 0.034 µg/mL and the concentration for a half-maximal effect (EC50 (read off the curve)) (usually the concentration giving half of the maximal effect) was approximately 0.03 µg/mL.
Taken in the same sequence, the figures for B5 were 0.041 µg/mL and approximately 0.04 µg/mL.
